Common to all, as to assay: WST-1 competition assay, decrease of formazan formation rate on SOO addition
On the technique in general: Tetrazolium assays rely on reduction of a dye to a coloured formazan, in cell work by metabolically active cells.

The target of data set [1] is T1, superoxide oxidase (SOO); CybB (Escherichia coli, UniProt P0ABE5, H158F).
T1 construct: full length with C-terminal 8xHis tag, expressed in E. coli BL21(DE3) pLysS, membrane protein purified in detergent (OGNG, assayed in DDM), two b hemes
It is filed as biochemical. The note with it: apparent Km; forward reaction, superoxide from xanthine oxidase/hypoxanthine, bo3 oxidase regenerates quinone, 50 nM SOO, 100 mM sodium phosphate pH 8, 0.05% DDM; range printed jointly for H158A and H.

Data set [2] has as its target T2, superoxide oxidase (SOO); CybB (Escherichia coli, UniProt P0ABE5, H158A).
T2 construct: full length with C-terminal 8xHis tag, expressed in E. coli BL21(DE3) pLysS, membrane protein purified in detergent (OGNG, assayed in DDM), two b hemes
It is filed as biochemical. The note with it: apparent Km; forward reaction, superoxide from xanthine oxidase/hypoxanthine, bo3 oxidase regenerates quinone, 50 nM SOO, 100 mM sodium phosphate pH 8, 0.05% DDM; range printed jointly for H158A and H.

Substrate in data set [3]: COC1=C(OC)C(=O)C(C/C=C(\C)CCC=C(C)C)=C(C)C1=O
It is filed as biochemical, Escherichia coli. As to conditions: apparent Km, forward reaction, superoxide from xanthine oxidase/hypoxanthine, bo3 oxidase regenerates quinone, 50 nM SOO, 100 mM sodium phosphate pH 8, 0.05% DDM.

T1 sequence (P0ABE5 whole entry H158F): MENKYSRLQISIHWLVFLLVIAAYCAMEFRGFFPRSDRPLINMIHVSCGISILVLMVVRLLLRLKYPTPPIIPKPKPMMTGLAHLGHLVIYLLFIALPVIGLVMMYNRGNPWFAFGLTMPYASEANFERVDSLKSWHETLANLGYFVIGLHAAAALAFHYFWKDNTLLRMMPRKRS
T2 sequence (P0ABE5 whole entry H158A): as the sequence (P0ABE5 whole entry H158F) above, with F158A counted along it

Broadly, the Km is the substrate concentration at which the rate is half of its maximum. Take `COC1=C(OC)C(=O)C(C/C=C(\C)CCC=C(C)C)=C(C)C1=O` [ubiquinone Q2]: the Km in data set [1] and in data set [2] was 8 to 13 µM in each case.

B1: superoxide oxidase (SOO); CybB (Escherichia coli K-12) (protein)
chain: MENKYSRLQISIHWLVFLLVIAAYCAMEFRGFFPRSDRPLINMIHVSCGISILVLMVVRLLLRLKYPTPPIIPKPKPMMTGLAHLGHLVIYLLFIALPVIGLVMMYNRGNPWFAFGLTMPYASEANFERVDSLKSWHETLANLGYFVIGLHAAAALAHHYFWKDNTLLRMMPRKRS
notes: full length with C-terminal 8xHis tag, expressed in E. coli BL21(DE3) pLysS, membrane protein purified in detergent (OGNG, assayed in DDM), two b hemes
Consider B1, for which, in data set [3], the Km was found to be 0.4 µM.

B2: superoxide oxidase (SOO); CybB (Escherichia coli K-12; D164A) (protein)
chain: MENKYSRLQISIHWLVFLLVIAAYCAMEFRGFFPRSDRPLINMIHVSCGISILVLMVVRLLLRLKYPTPPIIPKPKPMMTGLAHLGHLVIYLLFIALPVIGLVMMYNRGNPWFAFGLTMPYASEANFERVDSLKSWHETLANLGYFVIGLHAAAALAHHYFWKANTLLRMMPRKRS
notes: as for B1
B2: the Km in data set [3] turned out to be 5 µM.

B3: superoxide oxidase (SOO); CybB (Escherichia coli K-12; D164E) (protein)
chain: MENKYSRLQISIHWLVFLLVIAAYCAMEFRGFFPRSDRPLINMIHVSCGISILVLMVVRLLLRLKYPTPPIIPKPKPMMTGLAHLGHLVIYLLFIALPVIGLVMMYNRGNPWFAFGLTMPYASEANFERVDSLKSWHETLANLGYFVIGLHAAAALAHHYFWKENTLLRMMPRKRS
notes: as for B1
Turning to B3, in data set [3], the Michaelis-Menten constant (Km) came out at 3 µM.

Source of the values: PMC11869295, “Molecular Principles of Proton-Coupled Quinone Reduction in the Membrane-Bound Superoxide Oxidase” (Journal of the American Chemical Society, 2025).
